Test results: patent US6077666

Experiments:
[1] = biological target: somatostatin receptors in GH4 C1 cells; experiment: radioligand filtration binding on crude GH4 C1 membranes, vehicle-treated cells
[2] = biological target: somatostatin receptors in GH4 C1 cells; experiment: radioligand filtration binding on crude GH4 C1 membranes, sense oligo treated cells
[3] = biological target: somatostatin receptors in GH4 C1 cells; experiment: radioligand filtration binding on crude GH4 C1 membranes, cells treated with antisense oligo for 24 hours
[4] = biological target: somatostatin receptors in GH4 C1 cells; experiment: radioligand filtration binding on crude GH4 C1 membranes, antisense-treated against vehicle and sense-treated cells

- [125I]tyr-somatostatin binding (fmol/mg), vehicle-treated cells [1]: 408 fmol/mg
- [125I]tyr-somatostatin binding (fmol/mg), sense oligo treated cells [2]: 350 fmol/mg
- [125I]tyr-somatostatin binding, antisense oligo treated cells [3]: 166 fmol/mg
- decline in [125I]tyr-somatostatin binding after antisense treatment [4]: 60%
Substance: [125I]tyr-somatostatin, S-14 (from UniProt P61278) (peptide)
